Here are results for one molecule from paper PMC8754659.

This data set addresses SpyCas9 (Streptococcus pyogenes, UniProt Q99ZW2 1-1368). The data set is described as follows: EMSA.

SpyCas9, sequence (Q99ZW2 whole entry): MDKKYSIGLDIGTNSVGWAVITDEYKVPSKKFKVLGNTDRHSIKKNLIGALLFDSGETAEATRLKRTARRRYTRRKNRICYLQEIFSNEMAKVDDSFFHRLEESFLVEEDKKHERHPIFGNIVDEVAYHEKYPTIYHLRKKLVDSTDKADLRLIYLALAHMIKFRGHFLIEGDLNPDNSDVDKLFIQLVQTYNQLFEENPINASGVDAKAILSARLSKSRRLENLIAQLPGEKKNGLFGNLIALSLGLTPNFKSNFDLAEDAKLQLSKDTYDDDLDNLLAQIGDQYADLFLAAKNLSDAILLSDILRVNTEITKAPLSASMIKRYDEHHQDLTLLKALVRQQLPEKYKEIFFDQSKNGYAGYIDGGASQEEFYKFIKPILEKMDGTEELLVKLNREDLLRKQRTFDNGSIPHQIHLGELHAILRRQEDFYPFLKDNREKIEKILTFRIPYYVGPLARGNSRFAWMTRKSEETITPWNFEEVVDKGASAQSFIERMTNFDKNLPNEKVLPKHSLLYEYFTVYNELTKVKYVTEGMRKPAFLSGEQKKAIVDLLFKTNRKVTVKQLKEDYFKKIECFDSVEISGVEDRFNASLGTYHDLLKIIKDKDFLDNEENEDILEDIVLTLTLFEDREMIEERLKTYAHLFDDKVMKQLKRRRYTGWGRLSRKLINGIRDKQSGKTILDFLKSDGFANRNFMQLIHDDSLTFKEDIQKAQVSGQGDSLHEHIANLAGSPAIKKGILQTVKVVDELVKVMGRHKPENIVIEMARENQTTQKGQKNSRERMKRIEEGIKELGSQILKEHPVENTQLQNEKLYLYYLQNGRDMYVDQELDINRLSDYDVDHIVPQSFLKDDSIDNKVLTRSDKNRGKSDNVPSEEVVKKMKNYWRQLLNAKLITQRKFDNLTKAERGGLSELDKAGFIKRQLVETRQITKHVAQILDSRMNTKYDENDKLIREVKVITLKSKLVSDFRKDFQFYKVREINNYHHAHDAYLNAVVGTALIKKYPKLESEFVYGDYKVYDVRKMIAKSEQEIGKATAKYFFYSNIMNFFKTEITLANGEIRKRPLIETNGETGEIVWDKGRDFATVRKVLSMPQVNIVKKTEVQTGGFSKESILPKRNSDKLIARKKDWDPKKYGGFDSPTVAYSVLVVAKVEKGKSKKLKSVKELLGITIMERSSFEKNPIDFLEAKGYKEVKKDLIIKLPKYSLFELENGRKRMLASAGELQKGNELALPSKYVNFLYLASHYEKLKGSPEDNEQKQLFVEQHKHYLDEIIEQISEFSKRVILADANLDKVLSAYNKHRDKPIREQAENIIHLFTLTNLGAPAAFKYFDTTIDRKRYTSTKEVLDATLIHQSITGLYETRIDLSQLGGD

B1: sgRNA (20 nt spacer) + FAM target DNA 38 bp (mixed)
DNA 1: ATTGCCGTCAGGAAATTAGGTGCGCTTAGCTGGTATTG
DNA 2: CAATACCAGCTAAGCGCACCTAATTTCCTGACGGCAAT
On to B1, for which the binding result is “binds”.
